The text below walks through data of paper PMC8387365.

Assay [1] concerns the target full-length PRC1 (Protein Regulator of Cytokinesis-1) (UniProt O43663). Nature of the assay: BLI. (In general: Biolayer interferometry detects binding as a change in optical thickness at a sensor tip.)
The target in the next assay is PRC1(1-486) (UniProt O43663). Nature of the assay: BLI.
The target in assay [2] is microtubules polymerised from tubulin. Nature of the assay: TIRF microscopy, GFP intensity on immobilised microtubules.
microtubules polymerised from tubulin, sequence (P68363 whole entry, chain 1 of 2): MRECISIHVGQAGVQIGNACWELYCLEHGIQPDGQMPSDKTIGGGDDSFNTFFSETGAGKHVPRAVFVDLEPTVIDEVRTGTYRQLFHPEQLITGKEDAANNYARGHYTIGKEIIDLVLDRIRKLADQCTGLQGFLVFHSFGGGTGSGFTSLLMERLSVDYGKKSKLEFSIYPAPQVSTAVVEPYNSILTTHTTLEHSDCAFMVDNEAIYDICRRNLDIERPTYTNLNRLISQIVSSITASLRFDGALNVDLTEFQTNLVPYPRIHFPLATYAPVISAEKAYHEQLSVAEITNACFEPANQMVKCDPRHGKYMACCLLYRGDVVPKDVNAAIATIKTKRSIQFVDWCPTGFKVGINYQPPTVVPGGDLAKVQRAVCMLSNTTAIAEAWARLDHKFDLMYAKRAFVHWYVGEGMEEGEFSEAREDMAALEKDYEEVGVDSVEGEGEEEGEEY
microtubules polymerised from tubulin, sequence (A8K068 whole entry, chain 2 of 2, further chain): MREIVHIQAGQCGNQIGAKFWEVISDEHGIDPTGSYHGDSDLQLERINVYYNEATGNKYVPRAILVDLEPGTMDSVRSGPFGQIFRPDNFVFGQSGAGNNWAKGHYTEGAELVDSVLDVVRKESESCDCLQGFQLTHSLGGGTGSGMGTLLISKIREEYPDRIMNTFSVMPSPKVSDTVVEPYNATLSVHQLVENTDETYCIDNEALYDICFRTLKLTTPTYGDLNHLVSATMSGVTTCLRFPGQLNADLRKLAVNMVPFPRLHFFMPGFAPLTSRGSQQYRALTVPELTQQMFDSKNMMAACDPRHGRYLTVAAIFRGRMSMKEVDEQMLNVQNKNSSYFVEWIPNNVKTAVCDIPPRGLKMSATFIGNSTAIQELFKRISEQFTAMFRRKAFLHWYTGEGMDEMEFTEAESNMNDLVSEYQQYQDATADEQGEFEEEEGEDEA

full-length PRC1 (Protein Regulator of Cytokinesis-1), sequence (O43663 whole entry): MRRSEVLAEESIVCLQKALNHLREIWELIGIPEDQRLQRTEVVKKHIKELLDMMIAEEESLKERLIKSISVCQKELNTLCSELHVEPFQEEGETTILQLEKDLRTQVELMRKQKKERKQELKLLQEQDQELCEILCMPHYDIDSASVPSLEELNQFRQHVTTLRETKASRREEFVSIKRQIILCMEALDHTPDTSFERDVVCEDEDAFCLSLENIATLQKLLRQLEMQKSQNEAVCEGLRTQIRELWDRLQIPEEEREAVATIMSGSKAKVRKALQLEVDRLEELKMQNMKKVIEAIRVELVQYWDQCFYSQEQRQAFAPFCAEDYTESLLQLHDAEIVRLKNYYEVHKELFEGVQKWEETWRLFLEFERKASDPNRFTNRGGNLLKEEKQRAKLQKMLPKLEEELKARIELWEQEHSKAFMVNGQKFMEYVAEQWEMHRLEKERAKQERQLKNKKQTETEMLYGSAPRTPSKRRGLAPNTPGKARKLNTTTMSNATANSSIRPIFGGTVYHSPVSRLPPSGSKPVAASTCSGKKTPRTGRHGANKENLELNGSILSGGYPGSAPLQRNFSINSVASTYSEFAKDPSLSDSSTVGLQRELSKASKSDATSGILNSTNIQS
PRC1(1-486), sequence (O43663 1-486): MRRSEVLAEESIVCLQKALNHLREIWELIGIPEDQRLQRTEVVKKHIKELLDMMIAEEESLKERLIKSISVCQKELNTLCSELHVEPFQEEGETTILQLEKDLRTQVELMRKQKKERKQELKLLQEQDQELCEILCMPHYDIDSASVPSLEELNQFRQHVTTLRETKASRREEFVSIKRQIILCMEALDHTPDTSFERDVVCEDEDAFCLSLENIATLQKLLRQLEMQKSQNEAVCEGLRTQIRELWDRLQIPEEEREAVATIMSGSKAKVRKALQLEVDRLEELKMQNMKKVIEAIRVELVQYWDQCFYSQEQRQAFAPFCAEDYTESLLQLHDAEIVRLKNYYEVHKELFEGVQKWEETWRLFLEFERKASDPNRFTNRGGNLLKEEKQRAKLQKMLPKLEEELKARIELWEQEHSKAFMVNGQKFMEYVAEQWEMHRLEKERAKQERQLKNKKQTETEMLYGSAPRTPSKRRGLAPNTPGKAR

Broadly, the Kd is the free concentration of one partner at which half of the binding sites on the other are occupied at equilibrium, for simple one-to-one binding. As to “CLASP1(654-1471)-GFP (domain or fragment)”, the dissociation constant Kd came to 1190 nM in assay [1] and 1040 nM in the assay with PRC1(1-486).
In assay [2], “full-length CLASP1-GFP (natural protein)” yielded a GFP intensity per pixel at 8 nM of 26.9, a GFP intensity per pixel at 40 nM of 95.3, a GFP intensity per pixel at 60 nM of 109 and a GFP intensity per pixel at 80 nM of 400. Moreover, in assay [2], the GFP intensity per pixel at 160 nM stood at 398, the GFP intensity per pixel at 400 nM was determined as 754 and the GFP intensity per pixel at 800 nM worked out at 854.
